For one substance, inward GIRK current in planar lipid bilayers: increase on fusing further Gβγ vesicles to a bilayer holding GIRK and Gβγ results are on record in publication PMC6335053.

This experiment has as its target Human full-length GIRK4 (purified) (human) (UniProt P48544).
Sequence of UniProt P48544 (P48544 whole entry): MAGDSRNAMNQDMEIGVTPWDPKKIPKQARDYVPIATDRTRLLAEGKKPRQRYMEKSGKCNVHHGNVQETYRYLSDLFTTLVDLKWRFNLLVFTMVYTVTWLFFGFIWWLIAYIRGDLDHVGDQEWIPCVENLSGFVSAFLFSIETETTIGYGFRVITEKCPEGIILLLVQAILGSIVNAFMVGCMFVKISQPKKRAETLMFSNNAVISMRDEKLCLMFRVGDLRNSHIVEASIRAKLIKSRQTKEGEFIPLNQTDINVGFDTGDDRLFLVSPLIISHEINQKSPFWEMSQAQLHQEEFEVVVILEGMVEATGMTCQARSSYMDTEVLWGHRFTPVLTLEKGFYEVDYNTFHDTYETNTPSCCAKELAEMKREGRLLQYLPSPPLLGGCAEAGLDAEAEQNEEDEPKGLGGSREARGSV

“Human lipid-anchored Gβ1γ2 (from UniProt P62873 1-340; P59768 1-71) (complex)”: the inward GIRK current in planar lipid bilayers: increase on fusing further Gβγ vesicles to a bilayer holding GIRK and Gβγ at 1:0.1 (wt:wt), with 32 µM C8-PIP2 and 32 mM Na+ came to 5 fold.
